Laboratory results published in US20220195070A1 (Chugai, published 2022).

How the values were obtained:
[1] = biological target: T1, anti-DENV E protein antibody comprising a modified IgG heavy chain constant region (SEQ ID NO: 116); experiment: SPR (Biacore T200), 25 C, pH 7.4; SKA antibody captured by anti-rabbit IgG, anti-DENV E protein antibody injected 0-400 nM
T1 construct: also called anti-DENY E protein antibody; Fc-Mutated Antibody
Text: (§1) Anti-rabbit IgG was immobilized onto FC 3 and 4 of a CMS sensor chip using an amine coupling kit (GE Healthcare). For the immobilization of anti-rabbit IgG, HBS-EP+, pH7.4 (GE Healthcare) buffer was used as running buffer. After the immobilization, running buffer was changed to phosphate pH7.4 buffer. Each antibody was captured onto FC4 of the sensor chip by anti-rabbit IgG. The amount of Anti Fc-Mutation Antibody to be captured was adjusted so that the number of resonance units (RU) was 100.

[2] = biological target: T1, anti-DENV E protein antibody comprising …; experiment: SPR (Biacore T200), 25 C, pH 7.4; SKA antibody captured by anti-rabbit IgG, anti-DENV E protein antibody injected 0-400 nM; *reliability might be low
Text: as §1

T1 sequence (constant, as listed by the source limits assumed): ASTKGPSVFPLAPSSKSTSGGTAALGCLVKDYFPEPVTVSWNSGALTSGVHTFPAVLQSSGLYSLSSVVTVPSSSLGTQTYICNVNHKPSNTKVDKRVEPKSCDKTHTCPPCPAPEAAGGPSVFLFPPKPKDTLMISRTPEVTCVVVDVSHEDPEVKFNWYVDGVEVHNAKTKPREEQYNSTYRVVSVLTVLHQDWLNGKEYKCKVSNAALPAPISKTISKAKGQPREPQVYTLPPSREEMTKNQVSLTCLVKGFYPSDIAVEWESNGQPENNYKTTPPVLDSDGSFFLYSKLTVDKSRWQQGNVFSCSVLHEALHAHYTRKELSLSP

Row | Binder | Kd [1] [nM] | koff [1] [s⁻¹] | kon [1] [M⁻¹ s⁻¹] | Kd [2] [nM] | koff [2] [s⁻¹]
1 | SKA0027 (antibody, V domains shown, Recombinant rabbit monoclonal from B-cell cloning, expressed in FreeStyle 293-F cells; the first screen used B-cell culture supernatant; also called Anti-SG115 Antibody; rabbit Anti Fc-Mutation Antibody) VH: QEQLVESGGGLVQPEGSLTLTCTASGFSFSSSDYMCWVRQAPGKGLEWIGCIYTGSGSTYYASWAKGRFTISKTSSTTVTLQMTSLTAADTATFFCARRGDSYSNYSFKLWGPGTLVTVSS VL: AFELTQTPASVEAAVGGTVTIKCQASQNIYSNLAWYQQKPGQPPKLLIYTASSLASGVSSRFKGSGSGTEFTLTISDLECDDAATYYCQCTYINNGYGNTFGGGTEVVVKG | 1 | 0.000191 | 190000 | – | –
2 | SKA0117 (antibody, V domains shown, Recombinant rabbit monoclonal from B-cell cloning, expressed in FreeStyle 293-F cells; the first screen used B-cell culture supernatant; also called Anti-SG115 Antibody; rabbit Anti Fc-Mutation Antibody) VH: QSLEESGGDLVKPEGSLTLTCTASGFSFSSSHYMCWVRQAPGKGLEWIACIYAGSSDNTYYASWAKGRFTISKTSSTTVTLQMTSLTAADTATYFCARDTYGYVGYASAGGFFNLWGPGTLVTVSS VL: ALVMTQTPASVSAAVGGTVTINCQASHNIYSVLAWYQQKPGQRPRLLIYGASNLESGVPSRFKGSGSGTEYTLTISDLECDDAATYYCQSAYYSSSTGDNAFGGGTEVVVKG | – | – | 126000 | 0.000275 | 3.46e-08
3 | SKA0141 (antibody, V domains shown, Recombinant rabbit monoclonal from B-cell cloning, expressed in FreeStyle 293-F cells; the first screen used B-cell culture supernatant; also called Anti-SG115 Antibody; rabbit Anti Fc-Mutation Antibody) VH: QSLEESGGDLVKPGASLTLTCTASGFSFSSSYYMCWVRQAPGKGLEWIACIYAGSSGSTYYASWAKGRFTISKTSSTTVTLQMTSLTAADTATYFCARDGDENMLVGGYFNLWGPGTLVTVSS VL: ALVMTQTPSSVSAAVGGTVTINCQASHNIYSNLAWYQQKPGQRPKLLIYGASNLESGVPSRFKGSGSGTEYTLTISDLECDDAATYYCQSAYYSSNAGYNAFGGGTEVVVKG | 5.04 | 0.00135 | 267000 | – | –
4 | SKA0171 (antibody, V domains shown, Recombinant rabbit monoclonal from B-cell cloning, expressed in FreeStyle 293-F cells; the first screen used B-cell culture supernatant; also called Anti-SG115 Antibody; rabbit Anti Fc-Mutation Antibody) VH: QSLEESGGGLVQPEGSLTLSCTASGFSFSSSYYMCWVRQAPGKGLEWIACIYGGNSVITYYANWAKGRFTISETSSTTVTLQMTSLTAADTATYFCAREVHYDYLYTTYGYANLWGPGTLVTVSS VL: AIKMTQTPASVSAVVGGTVTINCQASETIYSGLAWYQQKPGQPPKLLIYDTANLETGVSSRFKGSGSGTEYTLTISDLECDDAATYFCLYAYYSGGSADNAFGGGTEVVVKG | 1.45 | 0.00149 | 1.02e+06 | – | –
5 | SKA0028 (antibody, V domains shown, Recombinant rabbit monoclonal from B-cell cloning, expressed in FreeStyle 293-F cells; the first screen used B-cell culture supernatant; also called Anti-SG115 Antibody; rabbit Anti Fc-Mutation Antibody) VH: QSVEESGGRLVTPGTPLTLTCTASGFTISSYHMSWVRQAPGKGLEWIGIIHGSGNMWYASWAKGRFTISRTSTTVDLEITSPTTEDTATYFCARIRFWASSNYYYFYLWGQGTLVTVSS VL: ALVMTQTPASVSEPVGGTVTINCQASQNIYSNLAWYQQKPGQRPRLLIYGASNLESGVPSRFRGSGSGTEFTLTISDLECADAATYYCQSAYWGNNNDGAFGGGTEVVVKG | – | 7.27e-05 | 116000 | 0.626 | –
6 | SKA0001 (antibody, V domains shown, Recombinant rabbit monoclonal from B-cell cloning, expressed in FreeStyle 293-F cells; the first screen used B-cell culture supernatant; also called Anti-SG115 Antibody; rabbit Anti Fc-Mutation Antibody) VH: QSVEESGGRLVTPGTPLTLTCTVSGFSLSYYAMNWVRQAPGKGLEWIGIIGISGGTYYASWAKGRFTISKSSSTTVDLKMTSPTTEDTATYFCARGGSAWGDLWGQGTLVTVSS VL: DIVMTQTPSSVSAAVGGTVTINCQASQSISRLLAWYQQKPGQPPKVLMHDASDLASGVPSRFKGSGSGTEYTLTISDLECADAATYYCQSYYWGSSGDIGYPFGGGTEVVVKG | – | – | 44400 | 0.00278 | 1.23e-07
